The chains are these.
B2: human Mob1, full length, unphosphorylated, untagged (natural protein)
chain: MSFLFSSRSSKTFKPKKNIPEGSHQYELLKHAEATLGSGNLRQAVMLPEGEDLNEWIAVNTVDFFNQINMLYGTITEFCTEASCPVMSAGPRYEYHWADGTNIKKPIKCSAPKYIDYLMTWVQDQLDDETLFPSKIGVPFPKNFMSVAKTILKRLFRVYAHIYHQHFDSVMQLQEEAHLNTSFKHFIFFVQEFNLIDRRELAPLQELIEKLGSKDR

Assay [1] addresses PPXY-containing peptide of Lats1.
Assay [2] concerns the target T1, human pMob1, full length, untagged (phosphorylated by Mst2) (human, UniProt Q9H8S9 1-216, phosphothreonine at 12 and 35).
T1 sequence: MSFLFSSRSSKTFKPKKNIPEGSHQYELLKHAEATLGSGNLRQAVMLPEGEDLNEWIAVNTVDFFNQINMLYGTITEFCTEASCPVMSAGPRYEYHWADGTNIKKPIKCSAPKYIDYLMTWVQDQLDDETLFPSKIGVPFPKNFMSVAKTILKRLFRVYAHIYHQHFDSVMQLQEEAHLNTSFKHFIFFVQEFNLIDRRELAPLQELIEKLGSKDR
The experiment in a line: crystal structure.

The target in assay [3] is B2. The experiment in a line: ITC.
For assay [4], the target named is T2, human Lats1C ΔHM (residue 602–1060) (human, UniProt O95835 602-1060).
T2 sequence: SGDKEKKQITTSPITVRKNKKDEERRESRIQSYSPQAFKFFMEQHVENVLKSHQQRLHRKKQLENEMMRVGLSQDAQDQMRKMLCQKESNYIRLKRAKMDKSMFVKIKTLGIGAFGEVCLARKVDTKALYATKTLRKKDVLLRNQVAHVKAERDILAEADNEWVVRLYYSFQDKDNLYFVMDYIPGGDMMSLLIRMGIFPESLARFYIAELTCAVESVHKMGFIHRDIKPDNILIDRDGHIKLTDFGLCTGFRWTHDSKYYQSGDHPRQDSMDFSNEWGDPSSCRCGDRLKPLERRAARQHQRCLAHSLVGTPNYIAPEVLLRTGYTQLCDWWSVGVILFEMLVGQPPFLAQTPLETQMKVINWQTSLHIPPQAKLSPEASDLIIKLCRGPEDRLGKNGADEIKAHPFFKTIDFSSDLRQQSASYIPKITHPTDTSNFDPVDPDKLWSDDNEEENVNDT
The experiment in a line: SEC. A general note: In gel filtration, larger molecules generally elute earlier.

Assay [5] has as its target T3, human Mst2 wild type, autophosphorylated (pMst2) (human, UniProt Q13188 9-491).
T3 sequence: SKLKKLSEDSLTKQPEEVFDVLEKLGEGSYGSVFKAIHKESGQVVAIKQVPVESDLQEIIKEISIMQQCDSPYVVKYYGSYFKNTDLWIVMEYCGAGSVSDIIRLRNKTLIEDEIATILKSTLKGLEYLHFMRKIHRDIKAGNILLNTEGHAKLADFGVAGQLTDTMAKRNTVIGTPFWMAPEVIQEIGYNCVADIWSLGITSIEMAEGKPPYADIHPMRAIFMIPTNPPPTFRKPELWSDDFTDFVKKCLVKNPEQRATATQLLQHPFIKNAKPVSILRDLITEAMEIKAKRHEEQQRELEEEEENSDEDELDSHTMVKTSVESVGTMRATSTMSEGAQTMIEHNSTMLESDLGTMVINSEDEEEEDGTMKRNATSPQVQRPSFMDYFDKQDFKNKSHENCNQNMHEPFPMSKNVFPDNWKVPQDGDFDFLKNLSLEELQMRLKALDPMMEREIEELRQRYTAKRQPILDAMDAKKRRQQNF
The assay is described as follows: NMR titration.

Assay [6] addresses B2. The assay is described as follows: ITC. This is another data set of the same source. (Isothermal titration calorimetry measures the heat released or taken up as one component is titrated into another.)
Assay [7] addresses B2. The experiment in a line: pull-down.
The next assay deals with human Mob1 H164A (human, UniProt Q9H8S9 1-216, H164A). The assay is described as follows: pull-down.
For the next assay, the target named is human Mob1 L207K (human, UniProt Q9H8S9 1-216, L207K). The assay is described as follows: pull-down.
For another assay, the target named is human Mob1 F167A (human, UniProt Q9H8S9 1-216, F167A). The assay is described as follows: pull-down.

By Kd is commonly meant the constant that tells how readily two partners part at equilibrium.

Read-outs that look alike come from different tables or passages of the source. Square brackets hold non-standard residues; d marks the D form. Ends that are not written are not given here. pT = C[C@@H](OP(=O)(O)O)[C@H](N)C(=O)O

For the molecule “human Sav WW domains (domain or fragment)”, the equilibrium dissociation constant (Kd) in [1] came out at 156000 nM.

B1: human Lats1 602–704 (Lats1 MBD) (domain or fragment)
chain: SGDKEKKQITTSPITVRKNKKDEERRESRIQSYSPQAFKFFMEQHVENVLKSHQQRLHRKKQLENEMMRVGLSQDAQDQMRKMLCQKESNYIRLKRAKMDKSM
Turning to B1, the binding result in assay [2] is reported as “binds”.
For the molecule DEEEEDG[pT]MKRNATSPQVQRPSFMDYFDKQ [synthetic phospho-T378 Mst2 MBM peptide], the Kd in [3] was determined as 119 nM.
As to B2, the binding result in [4] and in assay [5] was “binds” throughout.

B3: human Mst2 ΔL/MBM (contains only the MBM but lacks all other linker residues) (enzyme)
chain: SKLKKLSEDSLTKQPEEVFDVLEKLGEGSYGSVFKAIHKESGQVVAIKQVPVESDLQEIIKEISIMQQCDSPYVVKYYGSYFKNTDLWIVMEYCGAGSVSDIIRLRNKTLIEDEIATILKSTLKGLEYLHFMRKIHRDIKAGNILLNTEGHAKLADFGVAGQLTDTMAKRNTVIGTPFWMAPEVIQEIGYNCVADIWSLGITSIEMAEGKPPYADIHPMRAIFMIPTNPPPTFRKPELWSDDFTDFVKKCLVKNPEQRATATQLLQHPFIKNAKPVSILRDLITEAMEIKAKRHEEQQRELEEEEDEEEEDGTMKRNATSPQVQRPSFMDYFDKQNWKVPQDGDFDFLKNLSLEELQMRLKALDPMMEREIEELRQRYTAKRQPILDAMDAKKRRQQNF
B3 had a dissociation constant Kd in assay [6] of 230 nM.
For the molecule DGTMKRNATSPQVQRPSFMDYFDKQ (domain or fragment, human, UniProt Q13188 376-400, looked up, not fully specified (N-terminus); also: phosphorylated, sites not given here) [GST-Mst2 linker fragment 376–400, phosphorylated with Mst2 kinase domain], in assay [7], the binding result is “binds”.
For the molecule DEEEEDG[pT]MKRNATSPQVQRPSFMDYFDKQD (domain or fragment, human, UniProt Q13188 371-401, looked up, not fully specified (N-terminus)) [GST-pMst2 MBM (residues 371–401), phosphorylated], the binding result in [7] is given as “binds”.

B4: GST-Mst2 371–427, phosphorylated with Mst2 kinase domain (domain or fragment, human, UniProt Q13188 371-427, looked up)
chain: DEEEEDG[pT]MKRNATSPQVQRPSFMDYFDKQDFKNKSHENCNQNMHEPFPMSKNVFPD
modifications: also: GST fusion
As for B4, the binding result with human Mob1 H164A, with human Mob1 L207K and with human Mob1 F167A was “binds” in each case.

The record behind these values is PMC4511216 (Genes & Development, 2015).
